Literature values, collected in PMC2925223.

Tested on: His64
Assay: not stated
Details: His64 in the inward orientation in the crystal structures

Substance: Carbonic anhydrase II (HCA II) Y7F (Homo sapiens; Y7F)
- pKa: near 6.0
